How the values were obtained:
Test in all cases: cell-based or functional assay
CD80 (mouse) = CD80 (mouse) (UniProt Q00609)
CD54 (mouse) = CD54 (mouse) (UniProt P13597)
[1] = biological target: H-2K^b/OVAI peptide complex (mouse)

UniProt P13597, sequence (P13597 28-537): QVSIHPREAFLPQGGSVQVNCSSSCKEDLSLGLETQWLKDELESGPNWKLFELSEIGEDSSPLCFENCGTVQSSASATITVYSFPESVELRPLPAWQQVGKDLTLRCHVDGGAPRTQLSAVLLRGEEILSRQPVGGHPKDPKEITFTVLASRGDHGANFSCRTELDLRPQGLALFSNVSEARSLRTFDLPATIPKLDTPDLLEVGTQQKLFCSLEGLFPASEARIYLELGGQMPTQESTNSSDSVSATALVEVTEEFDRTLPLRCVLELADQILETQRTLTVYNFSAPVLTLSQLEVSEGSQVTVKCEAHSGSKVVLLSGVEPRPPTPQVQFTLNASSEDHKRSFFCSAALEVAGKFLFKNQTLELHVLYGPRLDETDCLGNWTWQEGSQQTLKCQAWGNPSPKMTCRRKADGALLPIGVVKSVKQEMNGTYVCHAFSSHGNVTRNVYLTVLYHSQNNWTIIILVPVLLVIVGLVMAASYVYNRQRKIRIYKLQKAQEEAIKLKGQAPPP
UniProt Q00609, sequence (Q00609 38-306): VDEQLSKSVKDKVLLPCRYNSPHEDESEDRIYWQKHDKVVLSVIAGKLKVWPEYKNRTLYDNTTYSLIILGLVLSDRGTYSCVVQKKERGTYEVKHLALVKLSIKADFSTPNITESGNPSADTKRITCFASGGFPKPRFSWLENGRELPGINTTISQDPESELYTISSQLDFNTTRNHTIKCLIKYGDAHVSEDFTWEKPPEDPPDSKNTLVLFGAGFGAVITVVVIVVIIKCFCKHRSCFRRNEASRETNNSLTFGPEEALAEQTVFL

With “CD28 (from UniProt P31041 20-218) (receptor)” the inhibition of Th-APC-stimulated OT I CD8^+ T cell proliferative response by CTLA-4/Ig fusion protein (15 µg/ml) (CD80 (mouse)) was 58%, the inhibition of aTEXO-stimulated OT I CD8^+ T cell proliferative response by CTLA-4/Ig (10 µg/ml) (CD80 (mouse)) was 49% and the inhibition of mDCEXO-stimulated OT I CD8^+ T cell proliferative response by CTLA-4/Ig (10 µg/ml) (CD80 (mouse)) was 56%.
Work on “LFA-1 (from UniProt P24063 24-1162; P11835 24-771) (receptor)” yielded an inhibition of Th-APC-stimulated OT I CD8^+ T cell proliferative response by anti-LFA-1 Ab (15 µg/ml) (CD54 (mouse)) of 50%, an inhibition of aTEXO-stimulated OT I CD8^+ T cell proliferative response by anti-LFA-1 Ab (10 µg/ml) (CD54 (mouse)) of 52% and an inhibition of mDCEXO-stimulated OT I CD8^+ T cell proliferative response by anti-LFA-1 Ab (10 µg/ml) (CD54 (mouse)) of 49%.
With OVA-specific TCR of OT I CD8^+ T cells the inhibition of Th-APC-stimulated OT I CD8^+ T cell proliferative response by anti-MHC class I Ab (15 µg/ml) [1] was 38%, the inhibition of aTEXO-stimulated OT I CD8^+ T cell proliferative response by anti-H-2K^b Ab (10 µg/ml) [1] was 49% and the inhibition of mDCEXO-stimulated OT I CD8^+ T cell proliferative response by anti-MHC class I Ab (10 µg/ml) [1] was 62%.

From US20100111916A1
